# Measured values as given in patent US11214614B2, “LTBP complex-specific inhibitors of TGFβ and uses thereof” (Scholar Rock, Inc., priority 2019, dated 2022).
# Where a chain is given by its changes, count along the chain named.
# B1: SR-AB43: cycle 3 light chain-optimized antibody, lineage SR-AB23; CDRs SEQ ID NO: 172-177 (antibody, V domains shown)
# VH: QVQLVESGGGVVQPGRSLRLSCAASGFTFRSYVMHWVRQAPGKGLEWVAVISHEGSLKYYADSVKGRFTISRDNSKNTLYLQMNSLRAEDTAVYYCARPRIAARRGGFGYWGQGTLVTVSS
# VL: NFMLTQPHSVSESPGKTVTISCTRSSGNIDYNYVQWYQQRPGSSPTTVIYEDNVRPSGVPDRFSGSIDSSSNSASLTISGLKTEDEADYYCQSYDSDNQRVVFGGGTKLTVL
# B2: SR-AB42-HuFab: human Fab fragment of SR-AB42 used in SPR (antibody, V domains shown)
# VH: B1 VH
# VL: B1 VL with Y31N, V54Q, S96Y, N98T, R100G
# B3: SR-AB43-HuFab: human Fab fragment of SR-AB43 used in SPR (antibody, V domains shown)
# VH: B1 VH
# VL: B1 VL
# B4: SR-AB63-HuFab: human Fab fragment of SR-AB63 used in SPR (antibody, V domains shown)
# VH: QLQLQESGPGLVKPSETLSLTCTVSGGSIRSSSYYWGWIRQPPGKGLEWIGSISYSATTYYNPSLKSRVTISVDTSKNQFSLKLSSVTAADTAVYYCAGDPSYDSIAGMQVWGQGTTVTVSS
# VL: DIQLTQSPSSLSASVGDRVTITCRASQSISSYLNWYQQKPGKAPKLLIYAASNLQSGVPSRFSGSGSGTDFTLTISSLQPEDFATYYCQQSFDWPLTFGGGTKVEIK
# Columns and labels:
# [1] = target: T1, huLTBP1 proTGFβ1 (Homo sapiens, UniProt P01137+Q14766); assay: Octet (BLI) binding, IgG captured on AHC tips, antigen at 100 nM; settings: Table 9, cycle 3, IgG1-agly
# T1 sequence (P01137 30-390): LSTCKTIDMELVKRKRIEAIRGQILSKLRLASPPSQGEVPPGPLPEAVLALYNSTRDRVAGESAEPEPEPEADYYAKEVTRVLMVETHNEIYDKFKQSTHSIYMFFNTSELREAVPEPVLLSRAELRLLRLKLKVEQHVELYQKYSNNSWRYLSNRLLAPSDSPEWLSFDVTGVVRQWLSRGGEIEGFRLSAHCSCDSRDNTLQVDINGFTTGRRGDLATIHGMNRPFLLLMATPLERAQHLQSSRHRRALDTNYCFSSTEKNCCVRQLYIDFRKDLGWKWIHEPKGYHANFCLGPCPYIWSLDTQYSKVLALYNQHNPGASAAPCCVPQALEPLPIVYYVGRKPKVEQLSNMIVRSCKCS
# T1 sequence (Q14766 347-1721 limits assumed): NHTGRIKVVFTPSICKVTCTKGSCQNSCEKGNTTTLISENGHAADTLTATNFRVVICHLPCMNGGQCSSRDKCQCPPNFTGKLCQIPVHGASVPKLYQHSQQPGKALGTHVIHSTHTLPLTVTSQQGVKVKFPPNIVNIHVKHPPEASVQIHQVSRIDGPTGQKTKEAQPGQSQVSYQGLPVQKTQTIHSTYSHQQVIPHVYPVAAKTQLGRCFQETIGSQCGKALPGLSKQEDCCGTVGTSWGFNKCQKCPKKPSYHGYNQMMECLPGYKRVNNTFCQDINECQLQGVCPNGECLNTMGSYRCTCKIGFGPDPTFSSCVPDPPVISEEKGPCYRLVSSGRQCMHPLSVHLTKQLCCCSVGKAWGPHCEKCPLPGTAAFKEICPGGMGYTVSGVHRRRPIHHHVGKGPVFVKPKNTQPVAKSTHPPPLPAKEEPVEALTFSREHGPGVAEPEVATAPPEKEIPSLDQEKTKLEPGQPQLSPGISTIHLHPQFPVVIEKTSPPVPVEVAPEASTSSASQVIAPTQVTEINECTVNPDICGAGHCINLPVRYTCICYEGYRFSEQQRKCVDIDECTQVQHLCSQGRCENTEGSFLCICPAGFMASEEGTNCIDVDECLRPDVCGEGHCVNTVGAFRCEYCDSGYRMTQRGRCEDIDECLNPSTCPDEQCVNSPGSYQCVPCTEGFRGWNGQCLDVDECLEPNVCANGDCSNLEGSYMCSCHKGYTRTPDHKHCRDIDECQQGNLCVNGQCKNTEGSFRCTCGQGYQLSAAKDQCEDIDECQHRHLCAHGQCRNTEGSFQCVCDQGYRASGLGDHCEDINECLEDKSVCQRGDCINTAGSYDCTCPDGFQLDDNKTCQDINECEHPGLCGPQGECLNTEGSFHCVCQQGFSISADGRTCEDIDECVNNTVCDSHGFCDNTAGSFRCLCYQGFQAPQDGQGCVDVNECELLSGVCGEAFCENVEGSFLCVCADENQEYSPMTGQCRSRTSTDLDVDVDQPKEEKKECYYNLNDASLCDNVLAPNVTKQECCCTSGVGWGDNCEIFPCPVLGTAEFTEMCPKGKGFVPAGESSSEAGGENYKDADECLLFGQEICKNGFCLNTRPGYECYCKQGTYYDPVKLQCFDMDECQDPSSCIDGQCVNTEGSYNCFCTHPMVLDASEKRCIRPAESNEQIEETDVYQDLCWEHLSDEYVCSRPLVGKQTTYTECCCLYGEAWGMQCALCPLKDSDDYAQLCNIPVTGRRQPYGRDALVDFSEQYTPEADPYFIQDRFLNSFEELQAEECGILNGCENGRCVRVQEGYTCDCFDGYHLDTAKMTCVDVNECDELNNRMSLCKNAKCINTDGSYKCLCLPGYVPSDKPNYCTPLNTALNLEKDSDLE
# Method: (§1) Suitable methods for in vitro binding assays to determine the parameters of binding kinetics include Bio-layer Interferometry (BLI)-based assays such as Octet, and surface plasmon resonance (SPR)-based assays, such as Biacore systems (see, for example: biophysics.bioc.cam.ac.uk/wp-content/uploads/2011/02/Biacore_assay_handbook.pdf).
# (§2) The affinity of SR-AB10, SR-AB2 and SR-AB13 was measured by Octet assay. The protocol used to measure the affinity of the antibodies to the complexes provided herein is summarized below.
# (§3) • 96 well black polypropylene plates • AHC Octet tips (anti-human IgG Fc capture tips) (FortdBio) • 10× kinetics buffer (FortdBio) (diluted to 1× in PBS) • reiner Bio-One 96-Well Half Area Microplates (VWR cat #82050-044) Procedure:
# (§4) Notes: The volume within each well during an Octet experiment is 100 uL.
# (§5) A shake speed of 1000 rpm is used for all assay steps.
# (§6) Pre-Wet Tips: • Biosensors must be pre-wet in 1× kinetics buffer (lx KB) for at least 10 minutes before starting an experiment. This can be done inside the Octet or on the bench.
# (§7) Loading: • Tips are baselined in 1× KB for 1 minute before loading. • AHC tips are loaded with antibody at a concentration of 1 μg/mL (˜7 nM) for 3 minutes. A limit is set so that loading will stop when any one sensor reaches a response of 1 nanometer. • Tips are baselined in buffer for 1 minute after loading. The antibody should not dissociate from the tips during this time.
# (§8) Antigen Association: • TGFβ1 in complex with various presentation molecules was associated to the immobilized antibodies at a single concentration of 100 nM in 1× KB.
# (§9) Antibody Dissociation: • Dissociation in 1×KB was performed for 3 minutes.
# (§10) Data Analysis using ForteBio Data analysis software 8.2: • Processing: align Y axis to last 5 seconds of baseline, perform inter-step correction with align to dissociation, and perform Savitzky-Golay filtering. • Analysis: 1:1 fitting model is utilized. Fitting is local and full. […] Results:
# (§11) LTBP complex-specific antibodies from the first round of affinity maturation/optimization (SR-AB14, SR-AB16, SR-AB17, SR-AB18, SR-AB19) were selected for a second round of affinity maturation/optimization (i.e., CDR-H3 mutagenesis as described herein) and particular progeny antibodies (SR-AB20, SR-AB21, SR-AB22, SR-AB23, SR-AB24, SR-AB25, SR-AB26, SR-AB27, SR-AB28, and SR-AB29) were assessed for their ability to bind various proTGFβl constructs. Binding affinities of the optimized antibodies were measured by Octet against human LTBP1-proTGFβI, human LTBP3-proTGFb1, mouse LTBP1-proTGFβ1, mouse LTBP3-proTGFb1, and GARP-proTGFβl complexes, essentially as described in Example 6. In brief, test antibodies were immobilized to the surface of anti-human Fc capture biosensors (AHC) (ForteBio®) and binding was then tested against the various TGFβ1 complexes at a single concentration of 100 nM to assess binding affinities. The antigens were allowed to associate for 3 minutes followed by a 5-minute dissociation. Kinetics buffer (ForteBio®) was used throughout the experiment, and KD was determined using a 1:1 fitting model for each antibody antigen pair.
# (§12) Binding affinities of the optimized antibodies were measured by Octet against human LTBP1-proTGFβ1, human LTBP3-proTGFβ1, mouse LTBP1-proTGFβ1, mouse LTBP3-proTGFβ1, and GARP-proTGFβ1 complexes, essentially as described in Example 6. In brief, test antibodies were immobilized to the surface of anti-human Fc capture biosensors (AHC) (ForteBio®) and binding was then tested against the various TGFβ1 complexes at a single concentration of 100 nM to assess binding affinities. The antigens were allowed to associate for 3 minutes followed by a 5-minute dissociation. Kinetics buffer (ForteBio®) was used throughout the experiment, and KD was determined using a 1:1 fitting model for each antibody antigen pair. […]
# [2] = target: T2, huGARP proTGFβ1 (Homo sapiens, UniProt P01137); assay: as above; settings: N.B. = non-binder under conditions of this assay
# T2 sequence (P01137 30-390): as the sequence (P01137 30-390) above
# T2 sequence (Q14392 18-627 partner limits assumed): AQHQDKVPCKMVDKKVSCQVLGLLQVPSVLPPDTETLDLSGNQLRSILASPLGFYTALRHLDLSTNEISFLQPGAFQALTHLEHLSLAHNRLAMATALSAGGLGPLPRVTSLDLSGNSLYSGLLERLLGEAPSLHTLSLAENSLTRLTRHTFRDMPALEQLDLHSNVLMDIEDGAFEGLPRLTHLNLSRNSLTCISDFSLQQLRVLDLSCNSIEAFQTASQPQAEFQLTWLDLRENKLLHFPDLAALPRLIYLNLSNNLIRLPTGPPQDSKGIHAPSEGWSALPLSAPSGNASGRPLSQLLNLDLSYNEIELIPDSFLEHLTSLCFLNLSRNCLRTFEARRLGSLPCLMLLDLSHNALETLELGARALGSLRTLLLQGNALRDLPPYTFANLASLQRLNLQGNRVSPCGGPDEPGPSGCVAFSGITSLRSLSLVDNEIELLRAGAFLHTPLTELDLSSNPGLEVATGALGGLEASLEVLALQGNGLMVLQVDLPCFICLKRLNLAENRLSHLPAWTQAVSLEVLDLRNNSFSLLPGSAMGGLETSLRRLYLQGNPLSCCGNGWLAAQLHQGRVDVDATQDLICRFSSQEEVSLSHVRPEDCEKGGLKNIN
# Method: as §1, §2, §3, §4, §5, §6, §7, §8, §9, §10, §11, §12
# [3] = target: T3, huLTBP3 proTGFβ1 (Homo sapiens, UniProt P01137+Q9NS15); assay: as above; settings: Table 9, cycle 3, IgG1-agly
# T3 sequence (P01137 30-390): as the sequence (P01137 30-390) above
# T3 sequence (Q9NS15 44-1303): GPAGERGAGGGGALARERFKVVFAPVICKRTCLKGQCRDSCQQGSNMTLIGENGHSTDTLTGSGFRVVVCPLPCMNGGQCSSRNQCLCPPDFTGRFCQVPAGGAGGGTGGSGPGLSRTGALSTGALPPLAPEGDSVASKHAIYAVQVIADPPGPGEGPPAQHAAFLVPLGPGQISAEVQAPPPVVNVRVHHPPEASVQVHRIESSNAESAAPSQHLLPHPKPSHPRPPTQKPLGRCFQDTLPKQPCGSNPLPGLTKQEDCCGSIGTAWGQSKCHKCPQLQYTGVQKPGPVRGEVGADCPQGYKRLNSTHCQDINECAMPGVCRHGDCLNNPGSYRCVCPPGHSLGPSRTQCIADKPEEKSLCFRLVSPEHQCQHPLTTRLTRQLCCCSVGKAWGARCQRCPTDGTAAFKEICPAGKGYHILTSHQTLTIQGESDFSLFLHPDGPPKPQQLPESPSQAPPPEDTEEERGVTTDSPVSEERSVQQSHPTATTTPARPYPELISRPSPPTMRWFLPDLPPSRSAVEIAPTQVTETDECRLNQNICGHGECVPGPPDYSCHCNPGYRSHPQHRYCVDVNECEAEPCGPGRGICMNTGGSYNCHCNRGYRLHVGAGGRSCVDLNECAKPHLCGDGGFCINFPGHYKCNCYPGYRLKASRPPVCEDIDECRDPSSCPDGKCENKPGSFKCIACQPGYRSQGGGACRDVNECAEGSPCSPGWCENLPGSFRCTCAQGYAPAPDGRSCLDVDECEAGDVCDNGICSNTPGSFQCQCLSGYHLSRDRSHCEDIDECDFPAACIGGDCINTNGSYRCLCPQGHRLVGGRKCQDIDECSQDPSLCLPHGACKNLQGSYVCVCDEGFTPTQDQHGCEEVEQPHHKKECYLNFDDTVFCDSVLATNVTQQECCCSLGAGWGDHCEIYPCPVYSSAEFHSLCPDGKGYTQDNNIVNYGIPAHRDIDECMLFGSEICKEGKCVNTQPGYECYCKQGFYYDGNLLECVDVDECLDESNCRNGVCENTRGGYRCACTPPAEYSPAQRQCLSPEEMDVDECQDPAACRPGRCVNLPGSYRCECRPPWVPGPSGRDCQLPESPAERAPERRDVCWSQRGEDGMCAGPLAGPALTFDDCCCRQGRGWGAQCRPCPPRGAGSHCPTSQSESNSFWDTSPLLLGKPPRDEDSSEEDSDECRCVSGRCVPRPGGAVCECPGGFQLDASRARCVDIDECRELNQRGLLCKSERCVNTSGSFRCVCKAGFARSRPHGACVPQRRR
# Method: as §1, §2, §3, §4, §5, §6, §7, §8, §9, §10, §11
# Binding affinities of the optimized antibodies were measured by Octet against human LTBP1-proTGFβ1, human LTBP3-proTGFβ1, mouse LTBP1-proTGFβ1, mouse LTBP3-proTGFβ1, and GARP-proTGFβ1 complexes, essentially as described in Example 6. In brief, test antibodies were immobilized to the surface of anti-human Fc capture biosensors (AHC) (ForteBio®) and binding was then tested against the various TGFβ1 complexes at a single concentration of 100 nM to assess binding affinities. The antigens were allowed to associate for 3 minutes followed by a 5-minute dissociation. Kinetics buffer (ForteBio®) was used throughout the experiment, and KD was determined using a 1:1 fitting model for each antibody antigen pair.
# [4] = target: T1, huLTBP1 proTGFβ1; assay: SPR (Biacore 8K) monovalent binding kinetics of Fabs, biotinylated antigen captured; parameters: biotin (complex biotinylated); settings: for ka / kd: Fab, huLTBP1 proTGFβ1, SR-AB42-HuFab average of five, SR-AB63-HuFab average of four replicate experiments
# Method: (§13) A Biacore 8K system was employed to determine the monovalent binding affinity and the kinetic parameters for antigen binding of test antibodies. Association and dissociation kinetics of Fab fragments SR-AB42-HuFab, SR-AB63-HuFab and SR-AB43-HuFab to antigen complexes were measured, and resulting ka, kd and KD are provided below. Briefly, the binding kinetics were evaluated by surface plasmon resonance using Biacore 8K (GE Healthcare). Biotinylated capture antigens were immobilized to the chip (10 nM, ˜200 RU loading). A Biotin CAPture sensor chip was used to capture the biotinylated antigens. Fabs at 10, 5, 2.5, 1.25, and 0.6 nM concentrations were injected over the captured antigens. 0 nM was used as a reference. Affinities of LTBP antibodies to GARP and LRRC33 were confirmed using higher concentration of Fabs (100, 50, 25, 12.5, 6.25 nM). 0 nM was used as a reference. Multi-cycle kinetics was employed where each analyte concentration was injected in a separate cycle and the sensor chip surface was regenerated after each cycle. All the assays were carried out in freshly prepared 1×HBS-EP+buffer (10 mM HEPES, 150 mM NaCl, 3 mM EDTA, 0.05% Tween20, pH 7.4). Data were fit globally to a 1:1 binding model to obtain the kinetic parameters. The sensorgram for 0 nM analyte concentration was used as reference.
# (§14) • 96 well plates—Greinerbio-one REF 650101 • Microplate Foils—GE Healthcare—CAT #28-9758-16 • Biotin CAPture Kit GE Healthcare product number 28920233 • Biacore running buffer—supplied as a 20× solution, diluted in Milli-Q water, TEKnova CAT #H8022 Method:
# (§15) These experiments were performed using the Biacore 8K using the method “multi-cycle kinetics/affinity using Biotin CAPture kit.”
# (§16) Data collection rate was set to 10 Hz and the Biotin CAPture step was performed for 300 seconds with a flow rate of 2 μL/minute. The Biotin CAPture reagent was used after a 1:5 dilution in 1× Biacore running buffer. Biotinylated ligands (the various complexes of TGFβ1) were utilized at a concentration of 10 nM and were immobilized to the sensor chip for 180 seconds with a flow rate of 10 μL/minute. The analytes, which are each of the Fabs, were tested at 10, 5, 2.5, 1.25, and 0.625 nM with a 0 nM control included. Analyte contact time was 120 seconds and the dissociation time was 900 seconds. The regeneration cycle utilized was 120 seconds with a flow rate of 10 μL/minute.
# (§17) The evaluation method used was “multi-cycle affinity using capture” and a 1:1 binding model was used. […] Global fits were utilized for every KD determination.
# [5] = target: T4, Murine LTBP3 proTGFβ1 (Mus musculus, UniProt P04202+Q61810); assay: as above; settings: Fab, Murine LTBP3 proTGFb1; average of two replicate experiments
# T4 construct: biotin (complex biotinylated)
# Method: as §13, §14, §15, §16, §17
# [6] = target: huLRRC33 proTGFβ1 (Homo sapiens, UniProt P01137); assay: as above; parameters: biotin (complex biotinylated); modified human kappa light chain signal peptide (N); Histidine tag (C); settings: Fab, huLRRC33 proTGFb1
# Sequence of huLRRC33 proTGFβ1 (P01137 30-390): as the sequence (P01137 30-390) above
# Sequence of huLRRC33 proTGFβ1 (Q86YC3 with tags, fused parts or gaps partner limits assumed): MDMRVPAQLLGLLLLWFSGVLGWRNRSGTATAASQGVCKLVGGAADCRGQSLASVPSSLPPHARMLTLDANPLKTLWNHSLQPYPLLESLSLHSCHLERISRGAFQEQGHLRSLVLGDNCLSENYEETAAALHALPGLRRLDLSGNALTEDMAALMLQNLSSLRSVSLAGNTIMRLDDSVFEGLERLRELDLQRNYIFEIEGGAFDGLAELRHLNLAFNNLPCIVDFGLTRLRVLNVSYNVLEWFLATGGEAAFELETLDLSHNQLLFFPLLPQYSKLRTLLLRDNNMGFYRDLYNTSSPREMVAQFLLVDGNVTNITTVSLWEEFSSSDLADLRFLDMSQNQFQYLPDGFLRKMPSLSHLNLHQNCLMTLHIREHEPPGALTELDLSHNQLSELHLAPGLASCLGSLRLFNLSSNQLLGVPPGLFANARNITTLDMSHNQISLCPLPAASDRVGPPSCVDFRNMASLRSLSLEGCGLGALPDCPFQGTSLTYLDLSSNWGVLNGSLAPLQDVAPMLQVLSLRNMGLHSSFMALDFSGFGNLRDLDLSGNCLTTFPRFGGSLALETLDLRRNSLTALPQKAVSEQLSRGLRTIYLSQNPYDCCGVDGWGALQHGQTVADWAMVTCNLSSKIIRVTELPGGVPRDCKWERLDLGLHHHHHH
# Method: as §13, §14, §15, §16, §17
# [7] = target: T3, huLTBP3 proTGFβ1; assay: as above; parameters: biotin (complex biotinylated); settings: Fab, huLTBP3 proTGFb1
# Method: as §13, §14, §15, §16, §17
# [8] = target: T2, huGARP proTGFβ1; assay: as above; parameters: biotin (complex biotinylated); settings: Fab, huGARP proTGFb1
# Method: as §13, §14, §15, §16, §17
Molecule,Hu LTBP1-proTGFβ1 Kon ([1]; 1:1 fit),Hu LTBP1-proTGFβ1 Koff ([1]; 5-minute dissociation),"ForteBio IgG KD Hu GARP-proTGFβ1 (M) Avid ([2]; Table 9, cycle 3, IgG1-agly, 1:1 fit)","ForteBio IgG KD Hu GARP-proTGFβ1 in solution (M) Avid ([2]; Table 10, same assay conditions as Table 9)",Hu LTBP3-proTGFβ1 Kon ([3]; 1:1 fit),Hu LTBP3-proTGFβ1 Koff ([3]; 5-minute dissociation),"KD of Fab fragments ([4]; SPR, Fab fragments, antigen not given)",ka [5],kd [5],ka [6],kd [6],ka [4],kd [4],ka [7],kd [7],ka [8],kd [8]
B1,244000 M⁻¹ s⁻¹,0.000159 s⁻¹,N.B.,N.B.,337000 M⁻¹ s⁻¹,6e-05 s⁻¹,sub-nanomolar,,,,,,,,,,
B2,,,,,,,,1.23e+08 M⁻¹ s⁻¹,0.397 s⁻¹,80900 M⁻¹ s⁻¹,0.00353 s⁻¹,543000 M⁻¹ s⁻¹,0.000105 s⁻¹,405000 M⁻¹ s⁻¹,0.000142 s⁻¹,155000 M⁻¹ s⁻¹,0.00604 s⁻¹
B3,,,,,,,,1.82e+09 M⁻¹ s⁻¹,6.37 s⁻¹,,,1.03e+06 M⁻¹ s⁻¹,0.000284 s⁻¹,,,,
B4,,,,,,,,,,5000 M⁻¹ s⁻¹,0.00108 s⁻¹,371000 M⁻¹ s⁻¹,3.82e-08 s⁻¹,394000 M⁻¹ s⁻¹,4.99e-05 s⁻¹,2660 M⁻¹ s⁻¹,0.00093 s⁻¹
